{"source": "the nanobody polyreactivity screen of Harvey et al. (2022)", "data": [{"assay": "yeast display, Sf9 membrane polyspecificity reagent, FACS + sequencing; frameworks hold sequencing errors", "in_short": "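Synthetic nanobody libraries on Saccharomyces cerevisiae BJ5465 were galactose-induced for 36–48 hours, stained 1 hour at 4 °C with 10% biotinylated, detergent-solubilized Sf9 membrane reagent and enriched on streptavidin microbeads. FACS then separated cells into low and high (top ~1%) gates by anti-HA (expression) and streptavidin (reagent binding) fluorescence. Genes were colony-PCR amplified, MiSeq 2 × 250 sequenced and CDR-length filtered. A clone's polyreactivity label is that of its gate of origin.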", "values": [{"sequence": "QVQLVESGGGLVQAGGSLRLSCAASGFTFTKYAMGWYRQAPGKERELVAAITSSGGGTYYADSVKGRFTISRDYAKNTVYLQMNRLKPVDTAVYYCARDSRTGYYYWGQGTQVTVSS", "polyreactivity (PSR sort gate)": "high polyreactivity"}, {"sequence": "QVQLVESGGGLVQAGGSLRLSCAASGFTFTLNAMGWYRQAPGKASEFVAAISTGGSTYYADSVKGRFTISRHNAKNTVYLQMNSRKPEDTAVYYCAAYRYSYHGSYQETYYYWGQGTQVTVSS", "polyreactivity (PSR sort gate)": "high polyreactivity"}, {"sequence": "QVQLVESGGGLVQAGGSLRLSCAASGFTFTLNAMGWYRQAPGKERELVAGISSGGSTNYADSVKGRFTISRDNAKNTVYLQMNSLKPEDTAVYYCAADRGYVWRYDYWGQGTQVTVSS", "polyreactivity (PSR sort gate)": "low polyreactivity"}, {"sequence": "QVQLVESGGGLVQAGGSLRLSCAASGFTFTNYAMGWYRQAPGKEREFVARITWSGGSTYYADSVKGRFTISRDNAKNTVYLQMNSLKPEDTAVYYCAARGWLVRSFIYDYWGQGTQVTVSS", "polyreactivity (PSR sort gate)": "high polyreactivity"}, {"sequence": "QVQLVESGGGLVQAGGSLRLSCAASGFTFTPNAMGWYRQAPGKERELVAAITSDGTTYYADSVKGRFTISRDNAKNTVYLQMNSLNPEDTAVYYCAADGGISAGANSGYDYWGQGTQVTVSS", "polyreactivity (PSR sort gate)": "high polyreactivity"}, {"sequence": "QVQLVESGGGLVQAGGSLRLSCAASGFTFTRNAMGWYRQAPGKEREFVAAITRSGGSTYYADSVKGRFTISRDNAKNTVYLQMNSLKPEDTAVYYCNKRSPSTIRFDYWGQGTQVTVSS", "polyreactivity (PSR sort gate)": "high polyreactivity"}, {"sequence": "QVQLVESGGGLVQAGGSLRLSCAASGFTFTRNAMGWYRQAPGKERELVAAISGSGGSTYYADSVKGRFTISRDNAKNTVYLQMNSLKPEDTAVYYCAAPLPWAYAYDYWGQGTQVTVSS", "polyreactivity (PSR sort gate)": "high polyreactivity"}, {"sequence": "QVQLVESGGGLVQAGGSLRLSCAASGFTFTRYAMGWYRQAPGKERELVAAMTTNSGSRTYYADSVKGRFTISRDNAKNTVYGQMNSLKPEDTAVYYCAADGPVVRGYYWGQGTQVTVSS", "polyreactivity (PSR sort gate)": "high polyreactivity"}, {"sequence": "QVQLVESGGGLVQAGGSLRLSCAASGFTFTRYTMGWYRQAPGKERELVAHITSGDSTNYADSVKGRFTISRDNAKNTVYLQKNSLKPEDTAVYYCNAEVKGFFYDYDYWGQGTQVTVSS", "polyreactivity (PSR sort gate)": "low polyreactivity"}, {"sequence": "QVQLVESGGGLVQAGGSLRLSCAASGFTFTRYTMGWYSQEPGKERELVARITRSGGSTYYADSVKGRFTISRDNAKNTVYLQMNSLKPEDTAVYYCAADTWSYTTRYYYWGQGTQVTVSS", "polyreactivity (PSR sort gate)": "high polyreactivity"}, {"sequence": "QVQLVESGGGLVQAGGSLRLSCAASGFTFTVYAMGWYRQAPGKERELVAAISGIGGSTYYADSVKGRFTISRDNAKNTVYLQMNSLKPEDTAVYYCNAVSGDSGDYWGQGTQVTVSS", "polyreactivity (PSR sort gate)": "low polyreactivity"}, {"sequence": "QVQLVESGGGLVQAGGSLRLSCAASGFTFTWYAMGWYRQAPGKQRELVASISRSGGSTYYAESVKGRFTISRDNAKNTVYLQMNSRKPEDTAVYYCAAVSRTRSYDYWGQGTQVTVSS", "polyreactivity (PSR sort gate)": "high polyreactivity"}, {"sequence": "QVQLVESGGGLVQAGGSLRLSCAASGFTFTYNTMGWYRQAPGKERELVAAISALGTSTYYADSVKGRFTISRDNAKNTVYLQMNSLKPEDTEVYYCAAAYRIGSGYWGQGTQVTVSS", "polyreactivity (PSR sort gate)": "high polyreactivity"}, {"sequence": "QVQLVESGGGLVQAGGSLRLSCAASGFTFTYNTMGWYRQAPGKEREMVAAISSTGGSTYYADSVKGRFTISRDNAKNTVYLQMNSLKPEDTAVYYCNACLPFSGRKRYGYWGQGTQVTVSS", "polyreactivity (PSR sort gate)": "high polyreactivity"}, {"sequence": "QVQLVESGGGLVQAGGSLRLSCAASGFTFTYYAMGWNRQEPGKERELVAAISGNGGSTYYADSVKGRFTISRDNAKNTVYLQMNRLKPEDTAVYYCNALPTSVGRWYRGDYWGQGTLVTVSS", "polyreactivity (PSR sort gate)": "high polyreactivity"}, {"sequence": "QVQLVESGGGLVQAGGSLRLSCAASGFTFTYYAMGWYRQAPGKERELVAAISASGDSTYYADSVKGRFTISRDNAKNTVYLQMNILKPEDTAVYYCAALYWYSRSSWDYDYWGQGTQVTVSS", "polyreactivity (PSR sort gate)": "high polyreactivity"}, {"sequence": "QVQLVESGGGLVQAGGSLRLSCAASGFTFTYYTMGWYRQATGKERELVAGISRSGGSTYYADSVKGRFTISRDYAKNTVYLQMNSLKPVDTAVYYCAAGSIQYRPTYTGDYWGQGTQVTVSS", "polyreactivity (PSR sort gate)": "high polyreactivity"}, {"sequence": "QVQLVESGGGLVQAGGSLRLSCAASGFTFVDYAMGWYRQAPGKERELVAAISSSGDSTYYADSVKGRFTISRYNAKNTVYLQMNSLKPEDNAVYYCAAEYDREEYSGYDYLGQGTQVTVSS", "polyreactivity (PSR sort gate)": "low polyreactivity"}, {"sequence": "QVQLVESGGGLVQAGGSLRLSCAASGFTFVFYAMGWYRQAPGKERELVAAISSGGGGTYYADSVKGRFTISRDNAKNTVYLQMNSLKPEDTAVYYCNTRYHKVYYGNDYWGQGTQVTVSS", "polyreactivity (PSR sort gate)": "high polyreactivity"}, {"sequence": "QVQLVESGGGLVQAGGSLRLSCAASGFTFVGNAMGWYRQAPGKERELVAAIRWSSGSTYYADSVKGRFTISRDNAKNTVYLQMNSLKPEDTAVYYCNAVYSVFYEYDYCGQGTQVTVSS", "polyreactivity (PSR sort gate)": "low polyreactivity"}, {"sequence": "QVQLVESGGGLVQAGGSLRLSCAASGFTFVGYAMGWYRQAPGKERELVASINYSGGSTYYADSVKGRFTISRDNAKNTVYVQMNSLNPEDTAVYYCAAGGYPWYLRRGGFACYDYWGQGTQVTVSS", "polyreactivity (PSR sort gate)": "low polyreactivity"}, {"sequence": "QVQLVESGGGLVQAGGSLRLSCAASGFTFVGYPLGWYRQATGKERELVAAISVSGGRTYYADSVKGRFTISRDNAMNTVYLQMKSLNPEDTAVYYCNAASPSYADFDYWGQGTQVTVSS", "polyreactivity (PSR sort gate)": "high polyreactivity"}, {"sequence": "QVQLVESGGGLVQAGGSLRLSCAASGFTFVINDLGWYRQAPGKERELVADITSGGDTYYADSVKGRFTISRDNAKNTVYLQMNSLKPEDTAFYYCAADIYPDWIYLLYGYWGQGTQVTVSS", "polyreactivity (PSR sort gate)": "low polyreactivity"}, {"sequence": "QVQLVESGGGLVQAGGSLRLSCAASGFTFVINDMGWNRQAPGKERELVADITSGGDTYYADSVKGRFTISRDNAKNTVDLQMNSLKPEDTAVYYCAADIYPDWIYLLYGYWGQGTQVTVSS", "polyreactivity (PSR sort gate)": "low polyreactivity"}, {"sequence": "QVQLVESGGGLVQAGGSLRLSCAASGFTFVKNAMGWYRQAPGKERELVAALSSRGGSTYYADSVKGRFTISRDNAKNTVYLQMNSLKPEDTAVYYCATERERTMGYWGQGTQVTVSS", "polyreactivity (PSR sort gate)": "high polyreactivity"}, {"sequence": "QVQLVESGGGLVQAGGSLRLSCAASGFTFVPYAMGWYRQAPGKERELVAAISGSGGSTYYADSVKGRFTISRDNAKNTVYLQMNSLKPEDTAVYYCNADRRWAYYWGQGTQVTVSS", "polyreactivity (PSR sort gate)": "high polyreactivity"}, {"sequence": "QVQLVESGGGLVQAGGSLRLSCAASGFTFVRYAMGWYRQAPGKERELVAAISSGGRTYYADSVKGRFTISRDNAKNTVYLQMNSLKPEDTAVYYCAADTKFGYGYWGQGTQVTVSS", "polyreactivity (PSR sort gate)": "high polyreactivity"}, {"sequence": "QVQLVESGGGLVQAGGSLRLSCAASGFTFVRYAMGWYRQAPGKERELVAAISSGGRTYYADSVKGRFTISRDNAKNTVYLQMNSLKPEDTAVYYCAAEKVGTRPSRDYDYWGQGTQVTVSS", "polyreactivity (PSR sort gate)": "high polyreactivity"}, {"sequence": "QVQLVESGGGLVQAGGSLRLSCAASGFTFVRYAMGWYRQAPGKERELVAAISSSGSSTYYADSVKGRFTISRDHEKNTVYLQMNSLKPEDTAVYYCNARAGRGEDYWGQGTQVTVSS", "polyreactivity (PSR sort gate)": "low polyreactivity"}, {"sequence": "QVQLVESGGGLVQAGGSLRLSCAASGFTFVRYAMGWYRQAPGKESEFVASISARGGNTFYADSVKGRFTISRDNAKNTVYLQMNSLKPEDTAVYYCAKPGPYGTGYGYWGQGTQVTVSS", "polyreactivity (PSR sort gate)": "high polyreactivity"}, {"sequence": "QVQLVESGGGLVQAGGSLRLSCAASGFTFVRYVMGWYRQAPGKERELVAAISRSGGSTHYADSVKGRFTISRDNAKNTVYLQMNSLKPEDTAVYYCAAASPRWPGQGDYWGQGTQVTVSS", "polyreactivity (PSR sort gate)": "high polyreactivity"}, {"sequence": "QVQLVESGGGLVQAGGSLRLSCAASGFTFVRYVMGWYRQAPGKERELVAAISRSGGSTHYADSVKGRFTISRDNAKNTVYLQMNSLKPEDTAVYYCADASPRWPGQGDYWGQGTQVTVSS", "polyreactivity (PSR sort gate)": "high polyreactivity"}, {"sequence": "QVQLVESGGGLVQAGGSLRLSCAASGFTFVSNAMGWYRQAPGKERELVAVISSGGSTTYADSVKGRFTISRDNAKNTVYLQMNSLKPEDTAVYYCATTNYQDSYEGGDYWGQGTQVTVSS", "polyreactivity (PSR sort gate)": "low polyreactivity"}, {"sequence": "QVQLVESGGGLVQAGGSLRLSCAASGFTFVSYAMGWYRQAPGKERELVASITWTGGSTYYADSVKGRFTISRDNAKNTVYLQMNSLKPEDTAVYYDYWGQGTQVTVSS", "polyreactivity (PSR sort gate)": "low polyreactivity"}, {"sequence": "QVQLVESGGGLVQAGGSLRLSCAASGFTFVTNAMGWYRQAPGKERELVAAISWNDDDTYYADSVKGRFTISRDNAKNTVYLQMNSLKPEDTAVYYCAKDEYRVKWWGWDIYDYWGQGTQVTVSS", "polyreactivity (PSR sort gate)": "low polyreactivity"}, {"sequence": "QVQLVESGGGLVQAGGSLRLSCAASGFTFVWYTMGWYRQAPGKERELVAAISSSGGTTYYADSVKGRFTISRDNAKNTVYLQMNSLKPEDTAVYYCNVAYFYTTPTRGYNYWGQGTQVTVSS", "polyreactivity (PSR sort gate)": "high polyreactivity"}, {"sequence": "QVQLVESGGGLVQAGGSLRLSCAASGFTFVYNAMGWYRPAPGKERELVAAITSGGNTYYADSVKGRFTISRDNAKNTVYLQMNSLKPEDTAVYYCAKRGYGRYYAYDYWGQGTQVTVSS", "polyreactivity (PSR sort gate)": "high polyreactivity"}, {"sequence": "QVQLVESGGGLVQAGGSLRLSCAASGFTFVYSVMGWYRQAPGKERELVAAINAGGGSTYYADSVKGRFTISRDNAKNTVYLQMNSLKPEDTAVYYCNARVRVRLGRNWSSYYYWGQGTQVTVSS", "polyreactivity (PSR sort gate)": "high polyreactivity"}, {"sequence": "QVQLVESGGGLVQAGGSLRLSCAASGFTFVYYAMGWYRQAPGKEREFVATISSRGDSTYYADSVKGRFTISRDNAKNTVYLQMNSLKPEDTAVYYCAADYDRKTRYGYLGQGTQVTVSS", "polyreactivity (PSR sort gate)": "low polyreactivity"}, {"sequence": "QVQLVESGGGLVQAGGSLRLSCAASGFTFVYYAMGWYRQAPGKERELVAAISRGGSTYYADSVKGRFTISRDNAQNPVYLQMNSLKPEDTAVYYCNAKKSGHYVSYPAYDYWGQGTQVTVSS", "polyreactivity (PSR sort gate)": "low polyreactivity"}, {"sequence": "QVQLVESGGGLVQAGGSLRLSCAASGFTFVYYAMGWYRQAPGKERELVAAISRSGGSTYYADSVKGRFTISRDNAKNTVNLQMNSLKPEDTAVYYCAARKTYGSRLSYEYWGQGTQVTVSS", "polyreactivity (PSR sort gate)": "high polyreactivity"}, {"sequence": "QVQLVESGGGLVQAGGSLRLSCAASGFTFVYYTMGWYRPAPRKVRELVAAISSSGGRTSYADSVKGLFTISRDNAKNTVYLQMNSLKPEDTAVYYCAARAYPTWRTYYYWGQGTQVTVSS", "polyreactivity (PSR sort gate)": "high polyreactivity"}, {"sequence": "QVQLVESGGGLVQAGGSLRLSCAASGFTFWANAMGWYRQAPGKERELVAAISWSGGSTTYADSVKGRFTISRDNAKNTVYLQMNSLKPEETAVYYCATDYGHYVTYRLSDYWGQGTQVTVSS", "polyreactivity (PSR sort gate)": "low polyreactivity"}]}]}
